Patent publication US20220387586A1 (Hoffmann-La Roche, published 2022)
Values belong to the binder of their own block, whether it stands above or below them.

Tests used:
[1] = target: T1, biotinylated PD1-ECD-AviHis (human, UniProt Q15116 25-170, biotinylated); assay: PD-L1 replacing ELISA on coated PD1-ECD-AviHis; competitor PD-L1 Fc chimera
T1 construct: also called huPD1; hu PD1; not shown: Avi-His tag
Description: (§1) After washing (3×90 μl/well with PBST-buffer) 25 μl/well goat-anti-human H+L-POD (JIR, 109-036-088) was added in 1:1000 dilution and incubated at RT for 1 h on shaker. After washing (3×90 μl/well with PBST-buffer) 25 μl/well TMB substrate (Roche, 11835033001) was added and incubated until OD 2-3. Measurement took place at 370/492 nm.

[2] = target: T1, biotinylated PD1-ECD-AviHis; assay: PD-L2 replacing ELISA on coated PD1-ECD-AviHis; competitor PD-L2 Fc chimera
Description: as §1, with “1:2000” for “1:1000”, “TMB (tetramethylbenzidine)” for “TMB”, “#11835033001)” for “11835033001)”

[3] = target: T1, biotinylated PD1-ECD-AviHis; assay: ELISA on coated biotinylated PD1-ECD-AviHis
Description: as §1, with “JIR109-036-088)/Sheep-anti-mouse-POD (GE Healthcare; NA9310)” for “109-036-088)”, “1:2000/1:1000” for “1:1000”, “(Roche Catalogue No.” for “(Roche,”

[4] = target: T2, biotinylated cynoPD1-ECD-Biotin (cynomolgus, UniProt B0LAJ3 25-170, biotinylated; the site and any Avi or His tag are not stated in the passages shown); assay: ELISA on coated cynoPD1-ECD-Biotin
T2 construct: also called cyPD1
Description: as §1, with “JIR109-036-088)” for “109-036-088)”

T1 sequence (Q15116 25-170): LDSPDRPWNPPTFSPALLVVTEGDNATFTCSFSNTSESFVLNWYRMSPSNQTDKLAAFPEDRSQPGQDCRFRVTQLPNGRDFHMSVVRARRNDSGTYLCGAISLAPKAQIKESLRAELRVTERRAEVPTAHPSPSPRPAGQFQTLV
T2 sequence (B0LAJ3 entry or part of it limits assumed): as the sequence (Q15116 25-170) above, with D2E, P10A, V19L, T35A, Q75R, T144A counted along it

- IC50 [1]: 0.128 µg/mL
- IC50 [2]: 0.034 µg/mL
- EC50 [3]: 0.0179 µg/mL
- EC50 [4]: 0.0098 µg/mL
B1: PD1-0050 (antibody, V domains shown)
VH: DVQLQESGPGLVKPSQSLSLTCTVTGYSITSDYAWNWIRQFPGNKLEWMGYITYTGRTSYNPSLKSRISITRDTSKNQFFLQLNSVTTEDTATYYCAREMDYYGSTLDYWGQGTTLTVSS
VL: KIVLTQSPASLAVSLRQRATISCRASESVDRYGNSFIHWYQQKPGQPPKVLIYRASNLESGFPARFSGSGSRTDFTLTIDPVEADDAATYYCQQNNEDPYTFGSGTKLEIK

- IC50 [1]: 0.225 µg/mL
- IC50 [2]: 0.089 µg/mL
- EC50 [3]: 0.0457 µg/mL
- EC50 [4]: 0.0227 µg/mL
B2: PD1-0069 (antibody, V domains shown)
VH: QVQLQQSGPELVRPGVSVKISCKGSGYTFTDYAMHWVKQSHARTLEWIGVISTYSGDTNYNQKFKDKATMTVDKSSSTAYLELARMTSEDSAIYYCARLGITTGFAYWGQGTLVTVSA
VL: DIVLTQSPASLAVSLGQRATISCRASKGVSTSSYSFMHWYQQKPRQPPKLLIKYASYLESGVPARFSGSGSGTDFTLNIHPVEEEDAATYYCHHSREFPWTFGGGTKLEIK
notes: Mouse hybridoma antibody

- IC50 [1]: 0.124 µg/mL
- IC50 [2]: 0.065 µg/mL
- EC50 [3]: 0.0151 µg/mL
- EC50 [4]: 0.0083 µg/mL
B3: PD1-0073 (antibody, V domains shown)
VH: EVKLVESGGGLVKPGGSLKLSCAASGFTFSNYGMSWIRQTPEKGLEWVATISGGGRDTYYPDSVKGRFTISRDNVKNNLYLQMSSLRSEDTAFYYCASYYYGIDYWGQGTSVTVSS
VL: DIVMTQPHKFMSTSVGDRVRITCKASQDVTTAVAWYQQKPGQSPKLLIYWASTRHTGVPDRFTGSGSGTEFTLTISSVQAEDLALYYCQQHYSIPWTFGGGTKLEIK

- IC50 [1]: 0.174 µg/mL
- IC50 [2]: 0.045 µg/mL
- EC50 [3]: 0.0508 µg/mL
- EC50 [4]: 0.0546 µg/mL
B4: PD1-0098 (antibody, V domains shown)
VH: DVQLQESGPGLVKPSQSLSLTCTVTGYSITSDYAWNWIRQFPGDKLEWLGYITYSGFTNYNPSLKSRISISRDTSKNQFFLQLNSVATEDTATYYCARWHGSAPWYFDYWGRGTTLTVSS
VL: DVLMTQTPLSLPVSLGDQASISCRSSQNIVHSDGNTYLEWYLQKPGQSPNLLIYKVSRRFSGVPDRFSGSGSGTDFTLKISRVEAEDLGVYYCFQGSHFPLTFGAGTKLELK
notes: Mouse hybridoma antibody

- IC50 [1]: 0.182 µg/mL
- IC50 [2]: 0.051 µg/mL
- EC50 [3]: 0.0337 µg/mL
- EC50 [4]: 0.0369 µg/mL
B5: PD1-0103 (antibody, V domains shown)
VH: EVILVESGGGLVKPGGSLKLSCAASGFSFSSYTMSWVRQTPEKRLDWVATISGGGRDIYYPDSVKGRFTISRDNAKNTLYLEMSSLMSEDTALYYCVLLTGRVYFALDSWGQGTSVTVSS
VL: KIVLTQSPASLPVSLGQRATISCRASESVDTSDNSFIHWYQQRPGQSPKLLIYRSSTLESGVPARFSGSGSRTDFTLTIDPVEADDVATYYCQQNYDVPWTFGGGTKLEIK
notes: Mouse hybridoma antibody; also called murine anti-PD1 antibody PD1-0103

- IC50 [1]: > 35.5 µg/mL
- IC50 [2]: 0.14 µg/mL
- EC50 [3]: 0.0342 µg/mL
- EC50 [4]: 0.0527 µg/mL
B6: PD1-0102 (antibody, V domains shown)
VH: DVQLQESGPDLVKPSQSLSLTCTVTGYSITSGYSWHWIRQFPGNKLEWMGFIHSSGDTNYNPSLKSRISFTRDTSKNQFFLQLSSLTDEDTATYYCATYRNWYFDVWGAGTTVTVSS
VL: DIVMTQSPSSLTVTAGEKVTMRCKSSQSLLNSGTQKNYLTWYQQKPGQPPKLLIYWASTRESGVPNRFTGSGSGTDFTLTISSVQAEDLSVYYCQSDYTFPLTFGGGTKLELK
